The values below come from US20260042854A1, “ANTI-GLP-1R ANTIBODIES AND USES THEREOF” (SCIWIND BIOSCIENCES USA CO., LTD, priority 2022, published 2026).

Test [1] has as its target monkey GLP-1R (JN033215.1) on HEK293 cells (monkey). As to the kind of experiment: cell-based or functional assay.
For test [2], the target named is hGLP-1R on the cell membrane (HEK293 cells overexpressing hGLP-1R) (human) (UniProt P43220). As to the kind of experiment: cell-based or functional assay.
hGLP-1R on the cell membrane (HEK293 cells overexpressing hGLP-1R) (human), sequence (P43220 24-463): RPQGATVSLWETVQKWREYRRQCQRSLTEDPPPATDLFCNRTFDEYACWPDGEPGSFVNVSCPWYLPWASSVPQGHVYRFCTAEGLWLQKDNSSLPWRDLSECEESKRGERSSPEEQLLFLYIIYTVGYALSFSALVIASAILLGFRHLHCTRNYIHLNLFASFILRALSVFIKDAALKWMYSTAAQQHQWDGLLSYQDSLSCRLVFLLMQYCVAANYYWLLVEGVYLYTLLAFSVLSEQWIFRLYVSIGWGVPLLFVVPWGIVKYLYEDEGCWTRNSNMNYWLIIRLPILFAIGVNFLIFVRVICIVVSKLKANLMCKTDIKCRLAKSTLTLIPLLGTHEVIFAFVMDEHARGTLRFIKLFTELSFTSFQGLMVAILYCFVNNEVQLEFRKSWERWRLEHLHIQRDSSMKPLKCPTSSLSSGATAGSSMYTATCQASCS

B1: P16891 (antibody, human IgG4 S228P, kappa)
heavy: QVQLVQSGAEMKKPGASVKVSCKTSGYRFSTYVISWVRQTPGQGLEWMGWISPYTGDIDYAQKFQGRVTITADESTSTAYMELSRLRSDDTAVYYCAREREGYNFPGMDVWGQGTTVTVSSASTKGPSVFPLAPCSRSTSESTAALGCLVKDYFPEPVTVSWNSGALTSGVHTFPAVLQSSGLYSLSSVVTVPSSSLGTKTYTCNVDHKPSNTKVDKRVESKYGPPCPPCPAPEFLGGPSVFLFPPKPKDTLYITREPEVTCVVVDVSQEDPEVQFNWYVDGVEVHNAKTKPREEQFNSTYRVVSVLTVLHQDWLNGKEYKCKVSNKGLPSSIEKTISKAKGQPREPQVYTLPPSQEEMTKNQVSLTCLVKGFYPSDIAVEWESNGQPENNYKTTPPVLDSDGSFFLYSRLTVDKSRWQEGNVFSCSVMHEALHNHYTQKSLSLSLGK
light: DIQLTQSPSFLSASVGDRVTITCRASQGISSYLAWYQQKPGRAPKLLIYSASTLQRGVPSRFSGSGSGTDFTLTISSLQPEDYATYYCQQAESFPPSFGPGTKVDIKRTVAAPSVFIFPPSDEQLKSGTASVVCLLNNFYPREAKVQWKVDNALQSGNSQESVTEQDSKDSTYSLSSTLTLSKADYEKHKVYACEVTHQGLSSPVTKSFNRGEC
On to B1, for which the IC50, inhibition of GLP-1 (2.5 ng/mL) activity in monkey GLP-1R-CRE-Luciferase-HEK293 reporter gene assay in test [1] turned out to be 13.8 nM. The molecule also registered an IC50, inhibition of GLP-1 (2.5 ng/ml) activity in hGLP-1R-CRE-Luciferase-HEK293 reporter gene assay in test [2] of 17.2 nM.
